Measured values as given in PMC12120876.

Molecular target: nLUC‐TaWUS‐like‐5D (wheat (Triticum aestivum))
Experiment: split reporter

luminescence signal, fold over the other three pairs of co-infiltration samples: 5 fold
Substance: SnRK1‐4B‐cLUC (natural protein)
